Numbering of substitutions follows the chain as printed.

The chains are these.
T1: human CD98 (Homo sapiens, UniProt P08195)
T1 sequence (P08195 1-630 isoform P08195-1): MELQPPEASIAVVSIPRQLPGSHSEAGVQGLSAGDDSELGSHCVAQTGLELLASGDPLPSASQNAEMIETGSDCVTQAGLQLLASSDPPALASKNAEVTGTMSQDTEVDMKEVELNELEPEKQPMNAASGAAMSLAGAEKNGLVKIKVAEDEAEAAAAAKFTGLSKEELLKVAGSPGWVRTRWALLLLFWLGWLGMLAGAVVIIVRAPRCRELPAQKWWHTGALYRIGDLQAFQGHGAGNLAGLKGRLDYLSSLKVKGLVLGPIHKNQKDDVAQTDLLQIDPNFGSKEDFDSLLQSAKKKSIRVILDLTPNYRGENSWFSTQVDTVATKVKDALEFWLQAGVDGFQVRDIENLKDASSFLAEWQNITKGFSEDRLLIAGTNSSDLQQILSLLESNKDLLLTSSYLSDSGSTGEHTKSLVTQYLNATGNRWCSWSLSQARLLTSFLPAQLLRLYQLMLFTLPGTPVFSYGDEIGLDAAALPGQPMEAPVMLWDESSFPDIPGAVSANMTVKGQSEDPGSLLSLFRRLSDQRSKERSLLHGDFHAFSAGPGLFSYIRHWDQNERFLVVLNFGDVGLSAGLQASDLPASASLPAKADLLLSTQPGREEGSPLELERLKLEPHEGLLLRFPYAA

T2: human CD98 ECD (Homo sapiens, UniProt P08195)
T2 construct: Human CD98 ECD with C-terminal His-tag
T2 sequence (P08195 with tags, fused parts or gaps): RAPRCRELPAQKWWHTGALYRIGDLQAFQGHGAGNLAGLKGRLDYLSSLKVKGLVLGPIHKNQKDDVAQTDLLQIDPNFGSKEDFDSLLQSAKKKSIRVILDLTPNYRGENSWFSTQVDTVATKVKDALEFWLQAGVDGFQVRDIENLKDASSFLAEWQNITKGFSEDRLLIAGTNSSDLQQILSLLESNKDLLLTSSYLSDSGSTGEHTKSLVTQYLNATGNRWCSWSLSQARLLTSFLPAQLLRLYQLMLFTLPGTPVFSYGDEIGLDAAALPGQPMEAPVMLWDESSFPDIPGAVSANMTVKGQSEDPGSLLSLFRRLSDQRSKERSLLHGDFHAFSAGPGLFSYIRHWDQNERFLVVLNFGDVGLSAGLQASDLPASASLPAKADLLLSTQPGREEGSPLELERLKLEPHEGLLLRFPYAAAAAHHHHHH

B1: huAb15v1 (antibody, V domains shown)
VH: EVQLVESGGGVVQPGRSLRLSCAASGFTFSDYTMAWVRQAPGKGLEWVATIIYSGRGTYYRDAVKGRFTISRDNSKSTLYLQMNSLRAEDTAVYYCARQSDHTYYYWGYFDYWGQGTMVTVSS
VL: DIVMTQSPDSLAVSLGERATINCKSSQSLLFSGNQKNYLAWYQQKPGQSPKLLIYWASTRQSGVPDRFSGSGSGTDFTLTIRSLQAEDVAIYYCQQYYDVPYTFGQGTKLEIK
B2: huAb15v7 (antibody, V domains shown)
VH: B1 VH with S54D, G55A, H102D
VL: B1 VL with D99G, V100S
B3: huAb15v2 (antibody, V domains shown)
VH: B1 VH with H102D
VL: B1 VL
B4: huAb15v5 (antibody, V domains shown)
VH: B1 VH with S54T, H102D
VL: B1 VL with D99S, V100S
B5: huAb15v4 (antibody, V domains shown)
VH: B1 VH with S54T, H102D
VL: B1 VL
B6: huAb15v3 (antibody, V domains shown)
VH: B1 VH with H102D
VL: B1 VL with D99G, V100S
B7: huAb15v6 (antibody, V domains shown)
VH: B1 VH with S54D, G55A, H102D
VL: B1 VL with D99S, V100S

Sequence of cynomolgus monkey CD98 ECD (as listed by the source): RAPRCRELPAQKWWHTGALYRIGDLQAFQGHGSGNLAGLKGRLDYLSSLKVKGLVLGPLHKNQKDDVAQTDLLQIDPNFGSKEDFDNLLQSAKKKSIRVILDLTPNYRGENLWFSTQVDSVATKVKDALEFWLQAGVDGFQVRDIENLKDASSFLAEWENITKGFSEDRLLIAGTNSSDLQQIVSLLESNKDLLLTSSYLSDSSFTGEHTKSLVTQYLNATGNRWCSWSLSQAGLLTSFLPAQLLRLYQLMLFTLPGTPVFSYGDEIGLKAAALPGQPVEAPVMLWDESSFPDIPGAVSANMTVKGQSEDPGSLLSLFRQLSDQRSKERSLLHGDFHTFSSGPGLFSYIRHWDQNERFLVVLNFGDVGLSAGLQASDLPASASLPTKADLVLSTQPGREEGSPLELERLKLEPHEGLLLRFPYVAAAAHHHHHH

Test system in one series: not listed separately
The series is described as follows: Conjugation of anti-CD98 mAbs with Bcl-xL inhibitor synthons (precipitation, DAR, recovery, aggregation). The conditions noted are these: mAb conjugated with Bcl-xL inhibitor synthon CZ, Method A. As for the experimental part: Method A. A solution of BOND-BREAKER tris(2-carboxyethyl)phosphine (TCEP) solution (10 mM, 0.017 mL) was added to a solution of antibody (10 mg/mL, […]) preheated to 37° C. The reaction mixture was kept at 37° C. for 1 hour. The solution of reduced antibody was added to a solution of synthon (3.3 mM, 0.160 mL in DMSO) and gently mixed for 30 minutes. The reaction solution was loaded onto a desalting column (PD10, washed with DPBS 3x before use), followed by DPBS (1.6 mL) and eluted with additional DPBS (3 mL). The purified ADC solution was filtered through a 0.2 micron, low protein-binding 13 mm syringe-filter and stored at 4° C.
Method E. A solution of BOND-BREAKER tris(2-carboxyethyl)phosphine (TCEP) solution (10 mM, 0.017 mL) was added to the solution of antibody (10 mg/mL, 1 mL) at room temperature. The reaction mixture was heated to 37° C. for 75 minutes. The solution of reduced antibody cooled to room temperature and was added to a solution of synthon (10 mM, 0.040 mL in DMSO) followed by addition of boric buffer (0.1 mL, 1M, pH 8). The reaction solution was let to stand for 3 days at room temperature, loaded onto a desalting column (PD10, washed with DPBS 3×5 mL before use), followed by DPBS (1.6 mL) and eluted with additional DPBS (3 mL). The purified ADC solution was filtered through a 0.2 micron, low protein-binding 13 mm syringe-filter and stored at 4° C.
As for B1, the “Key observation for ADC solution during and after conjugation” value (“Key observation” below) is “Precipitated during conjugation; inefficient conjugation”.

Take B2: the “DAR by MS” value came to 2.2; the “Key observation” value was “Precipitated during conjugation; inefficient conjugation”.

With B3, the “DAR by MS” value came to 2.1; the “Key observation” value is on record as “Precipitated during conjugation; inefficient conjugation”.

Regarding B4, the “DAR by MS” value turned out to be 1.0; the “Key observation” value is given as “Precipitated during conjugation; inefficient conjugation”.

As to B5, the “DAR by MS” value is on record as 1.9; the “Key observation” value is “Precipitated during conjugation; inefficient conjugation”.

B6: the “DAR by MS” value was determined as 1.2; the “Key observation” value is on record as “Precipitated during conjugation; inefficient conjugation”.

Take B7: the “DAR by MS” value is 2.0; the “Key observation” value was “Precipitated during conjugation; inefficient conjugation”.

Another series has as its target T1, human CD98. The series can be described thus: Binding of humanized antibodies to human CD98. The conditions noted are these: humanized variants of chAb3 and chAb15.
On to B1, for which the “binding to human CD98” value is given as “maintained binding”.

Consider B2, for which the “binding to human CD98” value is listed as “maintained binding”.

For B3, the “binding to human CD98” value is reported as “maintained binding”.

Consider B4, for which the “binding to human CD98” value was “maintained binding”.

Take B5: the “binding to human CD98” value was “maintained binding”.

As to B6, the “binding to human CD98” value was “maintained binding”.

On to B7, for which the “binding to human CD98” value is recorded as “maintained binding”.

Another series has as its system cynomolgus monkey CD98 ECD. The series can be described thus: Biacore surface plasmon resonance binding kinetics (anti-Fc capture). As to conditions: cyCD98 ECD. As for the experimental part: (§1) The binding kinetics of these purified mouse and rat monoclonal anti-CD98 antibodies for purified recombinant CD98 protein (extracellular domain, ECD) were determined by surface plasmon resonance-based measurements made on Biacore T100/T200 instruments (GE Healthcare, Piscataway, N.J.) at 25° C. using an anti-Fc capture assay approach. Binding kinetic measurements were made in the assay buffer HBS-EP+: 10 mM Hepes, pH 7.4, 150 mM NaCl, 3 mM EDTA, 0.05% Tween 20). For example, approximately 8000 RU of anti-Fc (species specific) polyclonal antibody (Thermo Fisher Scientific Inc., Rockford, Ill.) diluted in 10 mM sodium acetate (pH 4.5) was directly immobilized across a CM5 research grade biosensor chip using a standard amine coupling kit according to manufacturer's instructions and procedures at 25 μg/ml. Unreacted moieties on the biosensor surface were blocked with ethanolamine. The test antibody to be captured as a ligand was diluted in running buffer to ˜0.5 μg/mL and injected over anti-Fc surface at a flow rate of 10 μL/min. CD98 binding and dissociation were observed under a continuous flow rate of 80 μL/min. Human and cynomolgus monkey CD98 ECDs, both with a C-terminal His-tag, are used for this study (Table 3). After each cycle the anti-Fc capture surface was regenerated using 10 mM Glycine-HCl, pH 1.5. During the assay, all measurements were referenced against the capture surface alone (i.e., with no captured test antibody) and buffer-only injections (no antigen) were used for double referencing. For kinetic analysis, rate equations derived from the 1:1 Langmuir binding model were fitted simultaneously, globally and with mass transfer term included to multiple referenced antigen binding curves using Biacore T100/T200 Evaluation software.
(§2) The in vitro binding activities of the recombinant anti-CD98 chimeric mAbs were measured against both recombinant CD98 extracellular domain proteins (ECDs) and CD98-expressing cells. Briefly, binding kinetics of anti-CD98 chimera mAbs for human and cynomolgus CD98 ECDs were determined by surface plasmon resonance-based measurements as described in Example 4. Table 10 reported the association and dissociation rate constants for CD98 binding, ka (M^−1 s^−1) and kd (s^−1), and the equilibrium dissociation constant KD (M) of the interaction between antibodies and the target antigen. Binding of anti-CD98 chimera mAbs for CD98 on cell surface was evaluated by flow cytometry against CHO-K1 cell line stably transfected to express human CD98 and 3T12 cell line stably transfected to express cynomolgus monkey CD98.
(§3) The binding kinetics of the recombinant anti-CD98 chimeric antibodies for purified recombinant CD98 protein (extracellular domain, ECD) were determined by surface plasmon resonance-based measurements, as described in the Example 4.
(In general: Surface plasmon resonance follows binding to a sensor surface in real time, without labels.)
B1 had a ka of 26000 M⁻¹ s⁻¹ and a kd of 2.6e-05 s⁻¹.

In the case of B2, the ka came to 14000 M⁻¹ s⁻¹ and the kd was found to be 0.00043 s⁻¹.

B3 yielded a ka of 21000 M⁻¹ s⁻¹ and a kd of 4.8e-05 s⁻¹.

B4 gave a ka of 17000 M⁻¹ s⁻¹ and a kd of 0.00018 s⁻¹.

The molecule B5 returned a ka of 20000 M⁻¹ s⁻¹ and a kd of 5e-05 s⁻¹.

B6: the ka amounted to 18000 M⁻¹ s⁻¹ and the kd was 0.00014 s⁻¹.

The molecule B7 came in with a ka of 14000 M⁻¹ s⁻¹ and a kd of 0.00049 s⁻¹.

In a further series the target is T2, human CD98 ECD. The description is as above. The conditions noted are these: huCD98 ECD. As for the experimental part:
as §1, §2, §3
Regarding B1, the ka was determined as 53000 M⁻¹ s⁻¹ and the kd came out at 2.3e-05 s⁻¹.

In turn, B2 had a ka of 35000 M⁻¹ s⁻¹ and a kd of 0.00021 s⁻¹.

With B3, the ka was found to be 42000 M⁻¹ s⁻¹ and the kd was found to be 4.6e-05 s⁻¹.

Consider B4, for which the ka turned out to be 41000 M⁻¹ s⁻¹ and the kd is 0.00013 s⁻¹.

Regarding B5, the ka amounted to 35000 M⁻¹ s⁻¹ and the kd was determined as 2.8e-05 s⁻¹.

Take B6: the ka amounted to 44000 M⁻¹ s⁻¹ and the kd stood at 8.5e-05 s⁻¹.

B7 displayed a ka of 38000 M⁻¹ s⁻¹ and a kd of 0.00026 s⁻¹.

The record behind these values is patent publication US20230120736A1, “ANTI-CD98 ANTIBODIES AND ANTIBODY DRUG CONJUGATES” (AbbVie Inc., priority 2016, published 2023).
